These results are taken from the Human Domainome abundance scans (Beltran et al. 2025).

First the molecules themselves.
B1: Apoptosis-associated speck-like protein containing a CARD, residues 114 to 194; numbered along this chain, Q9ULZ3 (parent)
chain: FIDQHRAALIARVTNVEWLLDALYGKVLTDEQYQAVRAEPTNPSKMRKLFSFTPAWNWTCKDLLLQALRESQSYLVEDLER

± gives the uncertainty stated by the source.

The variants in the data set derive from B1. Briefly: abundance fitness (aPCA) (normalised: wild type 0, dead -1); higher = more abundant; growth selection in yeast, the domain comes from the species named. The conditions noted are these: Homo sapiens.
As to FIDQHRAALIARVTNVEWLLDALYGKVLTDEQYQAVRAEPTNPSKMRDLFSFTPAWNWTCKDLLLQALRESQSYLVEDLER [K48D], the abundance fitness is -0.745 ± 0.26. For FIDQHRAALIARVTNVEWLLDALYGKVLTDEQYQAVRAEPTNPSKMRLLFSFTPAWNWTCKDLLLQALRESQSYLVEDLER [K48L] the value was -0.347 ± 0.063; for FIDQHRAALIARVTNVEWLLDALYGKVLTDEQYQAVRAEPTNPSKMRKLFSFTPAWNWTCKDLLDQALRESQSYLVEDLER [L65D], -0.563 ± 0.099; for FIDQHRAALIARVTNVEWLLDALYGKVLTDEQYQAVRAEPTNPSKMRKLFSFTPAWNWTCKDLLTQALRESQSYLVEDLER [L65T], -0.343 ± 0.096.

Regarding FIDQHRAALIARVTNVEWLLDALYGKVLTDEQYQAVRAEPTNPSKMRKLFSFTPAWNWTCKDLLAQALRESQSYLVEDLER [L65A], the abundance fitness was -0.074 ± 0.06. For FIDQHRAALIARVTNVEWLLDALYGKVLTDEQYQAVRAEPTNPSKMRKLFSFTPAWNWTCKDLLHQALRESQSYLVEDLER [L65H] the value was -0.143 ± 0.099; for FIDQHRAALIARVTNSEWLLDALYGKVLTDEQYQAVRAEPTNPSKMRKLFSFTPAWNWTCKDLLLQALRESQSYLVEDLER [V16S], -0.846 ± 0.1. For the variant FIDQHRAALIARVTNVEWLLDALYGKVLTDEQYQAVRAEPTNPSKMRKLFSFTPAWNWTCKDLLLQALFESQSYLVEDLER [R69F], the abundance fitness was -0.636 ± 0.27. For FIDQHRAALIARVTNVEWLLDALYGKVLTDEQYQAVRAEPTNPSKMRKLFSFFPAWNWTCKDLLLQALRESQSYLVEDLER [T53F] the value was -0.342 ± 0.15.

FIDQHRAALIARVTNVEWLLDALYGKVLTDEQYQAVRAEPTNPSKMRKLFSFTPAWNWTCKDQLLQALRESQSYLVEDLER [L63Q]: the abundance fitness was -0.243 ± 0.098. For FIDQHRAALIARVTNVEWLLDALYGKVLTDSQYQAVRAEPTNPSKMRKLFSFTPAWNWTCKDLLLQALRESQSYLVEDLER [E31S] the value was -0.263 ± 0.053. For FIDQHRAALIARVTNVEWLLDALYGKVLTDEQYQAVRAEPTNPSKMRKLFSFTPAWNWTCKDLLLPALRESQSYLVEDLER [Q66P] the value was -0.48 ± 0.085; for FIDQHRAALIARVTNVEWLLDALYGKVLTDEQYMAVRAEPTNPSKMRKLFSFTPAWNWTCKDLLLQALRESQSYLVEDLER [Q34M], -0.329 ± 0.097; for FIDQHRAALIARVTNVEWLLDALYGKVLTDEQYQAVRAEPTNMSKMRKLFSFTPAWNWTCKDLLLQALRESQSYLVEDLER [P43M], -0.138 ± 0.07. In the case of FIDQHRAALIARVTNVEWLLDALYGKVLTDEQYQAVRAEPTNESKMRKLFSFTPAWNWTCKDLLLQALRESQSYLVEDLER [P43E] it was 0.07 ± 0.072; in that of FIDQHRAALIARVTNVEWLLDALYGKVLTDEQYQAVRAEPTNTSKMRKLFSFTPAWNWTCKDLLLQALRESQSYLVEDLER [P43T], 0.04 ± 0.068; in that of FIDQHRAALIARVTNVEWLLDALYGKVLTDEQYQAVRAEPTNPRKMRKLFSFTPAWNWTCKDLLLQALRESQSYLVEDLER [S44R], -0.064 ± 0.054.

In the case of FIDQHRAALIARVTNVEWLLDALYGKVLTDEQYQAVRAEPTNPSKMRKLFSFTPAWRWTCKDLLLQALRESQSYLVEDLER [N57R], the abundance fitness is -0.731 ± 0.074. Take FIDQHRAALIARVTNVEWLLDALYGKVLTDEQYQAVRAEPTNPSKMRKLFSFTPAWCWTCKDLLLQALRESQSYLVEDLER [N57C]: the abundance fitness is -0.269 ± 0.1.

Regarding FIDQHRAALIARVTNVEWLLDALYGKVLTDEQYQAVRAEPTNPSKMRKLFSFTPAWYWTCKDLLLQALRESQSYLVEDLER [N57Y], the abundance fitness is -0.852 ± 0.25.

With FIDQHRAALIARVTNVEWLLDALYGKVLTDEQYQAVRAEPTNPSKMRKLFSFTPAWWWTCKDLLLQALRESQSYLVEDLER [N57W], the abundance fitness is -0.468 ± 0.086. In the case of FIDQHRAALIARVTNVEWLLDALYGKVLTDEQYQAVRAEPTNPSKMRKLISFTPAWNWTCKDLLLQALRESQSYLVEDLER [F50I] it was -0.418 ± 0.13; in that of FIDQHRAALIARVTNVEWLLDALYGKVLTDEQYQAVRAEPTNPSKMRKLCSFTPAWNWTCKDLLLQALRESQSYLVEDLER [F50C], -0.937 ± 0.17; in that of FIDQHRAALIARVTNVEWLLDALYGKVLTDEQYQAVRAEPTNPSKMRKLWSFTPAWNWTCKDLLLQALRESQSYLVEDLER [F50W], -0.693 ± 0.097. As to FIDQHRAALIARVTNVEWLLDALYGKVLTDEQYQAVRAEPTNPSKMRKLFSFTPAWNWTCKDLLLQALRESQSYLVIDLER [E77I], the abundance fitness was -0.479 ± 0.18. In the case of FIDQHQAALIARVTNVEWLLDALYGKVLTDEQYQAVRAEPTNPSKMRKLFSFTPAWNWTCKDLLLQALRESQSYLVEDLER [R6Q] it was -0.285 ± 0.13; in that of FIDQHRAALIARVTNVEWLLDALYIKVLTDEQYQAVRAEPTNPSKMRKLFSFTPAWNWTCKDLLLQALRESQSYLVEDLER [G25I], -0.543 ± 0.22.

In the case of FIDQHRAALIARVTNVEWLLDAQYGKVLTDEQYQAVRAEPTNPSKMRKLFSFTPAWNWTCKDLLLQALRESQSYLVEDLER [L23Q], the abundance fitness was -0.739 ± 0.24.

On to FIDQHRQALIARVTNVEWLLDALYGKVLTDEQYQAVRAEPTNPSKMRKLFSFTPAWNWTCKDLLLQALRESQSYLVEDLER [A7Q], for which the abundance fitness was determined as 0.045 ± 0.084.

As for FIDQHRAALIARVTNVEWLLDALYGKVLTDEQYQAVRAEPTNPSKMRKLFSFTPAWNWTCKDLLLQALRESQFYLVEDLER [S73F], the abundance fitness is -0.551 ± 0.12.

FIDQHRAALIARVTNVEWLLDALYGKVLTDEQYQAVRAEPTNPSKMRKLFSFTPAWNWTCKDLLLQALRESQVYLVEDLER [S73V]: the abundance fitness was -0.517 ± 0.077. On to FIDQHRAALIARVTNVEWLLDALYGKVLTDEQYQAVRAEPTNPSKMRKLFSFTPAWNWTCKDLLLQALRESQSYLVEPLER [D78P], for which the abundance fitness was -0.687 ± 0.1.

Consider FIDQHRAALIARVTNVEWLLDALYGKVLTDEQYQAVRAEPTNPSKMRKLFSFTPFWNWTCKDLLLQALRESQSYLVEDLER [A55F], for which the abundance fitness was -0.36 ± 0.32.

For the variant FIDQHRAALIARVTNVEWLLDALYGKVLTDEQYQAVRAEPTNPSKMRKLFSFTPAWNWTCKDLLLQALRESQSYDVEDLER [L75D], the abundance fitness was -0.819 ± 0.28.
